# Reference: paper PMC4167924
# Target: adaptor protein 1A complex (AP-1A; γ/β1/μ1A/σ1), endogenous, mouse (mouse (endogenous in pituitary and in AtT-20)) (UniProt P22892)
# Test: co-IP
# UniProt P22892, sequence (P22892 whole entry, chain 1 of 4): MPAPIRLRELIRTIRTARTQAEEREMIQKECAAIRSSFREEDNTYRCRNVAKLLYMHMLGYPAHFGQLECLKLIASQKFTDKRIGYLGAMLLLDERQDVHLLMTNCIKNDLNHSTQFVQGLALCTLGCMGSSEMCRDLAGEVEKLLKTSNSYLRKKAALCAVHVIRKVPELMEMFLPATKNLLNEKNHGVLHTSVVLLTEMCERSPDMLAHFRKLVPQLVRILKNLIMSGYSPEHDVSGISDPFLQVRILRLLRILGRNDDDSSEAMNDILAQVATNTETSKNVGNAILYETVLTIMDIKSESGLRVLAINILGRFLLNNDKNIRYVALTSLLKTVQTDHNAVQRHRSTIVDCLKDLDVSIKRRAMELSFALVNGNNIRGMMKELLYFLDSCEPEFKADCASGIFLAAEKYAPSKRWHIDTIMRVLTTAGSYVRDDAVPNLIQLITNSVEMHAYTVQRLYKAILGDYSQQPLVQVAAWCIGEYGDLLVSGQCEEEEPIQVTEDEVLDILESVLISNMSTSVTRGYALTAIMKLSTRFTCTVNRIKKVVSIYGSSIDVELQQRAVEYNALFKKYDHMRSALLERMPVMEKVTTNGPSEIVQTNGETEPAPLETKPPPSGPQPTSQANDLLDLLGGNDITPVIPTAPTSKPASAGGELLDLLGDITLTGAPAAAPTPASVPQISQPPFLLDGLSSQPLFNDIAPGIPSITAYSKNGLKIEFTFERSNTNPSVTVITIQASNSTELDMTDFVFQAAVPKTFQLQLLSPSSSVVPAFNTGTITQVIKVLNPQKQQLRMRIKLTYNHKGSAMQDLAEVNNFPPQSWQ
# UniProt P22892, sequence (O35643 whole entry, chain 2 of 4, further chain): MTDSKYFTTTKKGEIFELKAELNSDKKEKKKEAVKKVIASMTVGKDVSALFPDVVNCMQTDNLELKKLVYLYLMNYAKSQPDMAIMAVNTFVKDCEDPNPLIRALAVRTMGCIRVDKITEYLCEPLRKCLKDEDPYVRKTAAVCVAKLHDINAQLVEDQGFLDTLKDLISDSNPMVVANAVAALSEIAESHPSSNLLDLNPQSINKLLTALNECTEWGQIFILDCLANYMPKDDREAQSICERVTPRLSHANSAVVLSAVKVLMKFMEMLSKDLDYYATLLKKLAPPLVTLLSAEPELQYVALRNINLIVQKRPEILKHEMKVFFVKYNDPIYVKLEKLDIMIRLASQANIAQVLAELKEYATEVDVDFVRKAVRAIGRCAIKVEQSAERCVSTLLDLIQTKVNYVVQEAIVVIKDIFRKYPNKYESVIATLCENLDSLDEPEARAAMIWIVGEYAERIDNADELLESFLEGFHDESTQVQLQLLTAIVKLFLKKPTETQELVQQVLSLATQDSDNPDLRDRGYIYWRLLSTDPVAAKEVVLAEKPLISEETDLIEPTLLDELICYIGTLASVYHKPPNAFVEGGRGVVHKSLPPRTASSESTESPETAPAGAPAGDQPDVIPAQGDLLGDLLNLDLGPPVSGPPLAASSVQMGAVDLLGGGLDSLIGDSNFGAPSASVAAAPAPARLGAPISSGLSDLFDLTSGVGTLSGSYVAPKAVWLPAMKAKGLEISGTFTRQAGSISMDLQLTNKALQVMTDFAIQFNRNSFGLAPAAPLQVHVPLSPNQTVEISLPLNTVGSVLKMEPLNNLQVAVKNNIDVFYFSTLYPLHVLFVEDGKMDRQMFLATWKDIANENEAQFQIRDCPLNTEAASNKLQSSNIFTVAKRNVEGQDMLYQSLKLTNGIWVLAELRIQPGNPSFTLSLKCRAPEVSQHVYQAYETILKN
# UniProt P22892, sequence (P35585 whole entry, chain 3 of 4, further chain): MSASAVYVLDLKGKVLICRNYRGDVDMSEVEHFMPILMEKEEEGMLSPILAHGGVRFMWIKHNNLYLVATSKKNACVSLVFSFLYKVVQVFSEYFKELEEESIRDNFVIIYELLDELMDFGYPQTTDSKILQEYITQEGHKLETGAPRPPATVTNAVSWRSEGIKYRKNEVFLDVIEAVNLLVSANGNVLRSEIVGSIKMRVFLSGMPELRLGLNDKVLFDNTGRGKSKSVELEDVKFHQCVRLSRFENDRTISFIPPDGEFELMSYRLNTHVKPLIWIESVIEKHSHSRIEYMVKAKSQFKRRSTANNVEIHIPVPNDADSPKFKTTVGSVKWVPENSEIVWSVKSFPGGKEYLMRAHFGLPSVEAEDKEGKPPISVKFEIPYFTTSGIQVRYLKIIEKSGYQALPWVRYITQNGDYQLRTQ
# UniProt P22892, sequence (P61967 whole entry, chain 4 of 4, further chain): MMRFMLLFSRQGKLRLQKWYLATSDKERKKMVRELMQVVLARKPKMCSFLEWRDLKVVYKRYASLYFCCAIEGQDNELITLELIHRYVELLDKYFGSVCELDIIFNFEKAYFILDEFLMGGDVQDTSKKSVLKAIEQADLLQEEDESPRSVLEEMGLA
row,percent of PAM-1 co-immunoprecipitated [%],Binder
1,3,"peptidylglycine α-amidating monooxygenase-1 (PAM-1), endogenous in mouse pituitary (natural protein) FKETTRSFSNECLGTTRPITPIDSSDFTLDIRMPGVTPKESDTYFCMSMRLPVDEEAFVIDFKPRASMDTVHHMLLFGCNMPSSTGSYWFCDEGTCTDKANILYAWARNAPPTRLPKGVGFRVGGETGSKYFVLQVHYGDISAFRDNHKDCSGVSLHLTRVPQPLIAGMYLMMSVNTVIPPGEKVVNSDISCHYKMYPMHVFAYRVHTHHLGKVVSGYRVRNGQWTLIGRQSPQLPQAFYPVEHPVDVAFGDILAARCVFTGEGRTEATHIGGTSSDEMCNLYIMYYMEAKHAVSFMTCTQNVAPDMFRTIPEEANIPIPVKSDMVMIHGHHKETENKEKSALIQQPKQGEEEAFEQGDFYSLLSKLLGEREDVVHVHKYNPTEKTESGSDLVAEIANVVQKKDLGRSDAREGAEHEEGGNAILVRDRIHKFHRLESTLRPAESRALSFQQPGEGPWEPELAGDFHVEEALEWPGVYLLPGQVSGVALDSKNNLVIFHRGDHVWDGNSFDSKFVYQQRGLGPIEEDTILVIDPNKAEILQSSGKNLFYLPHGLSIDTDGNYWVTDVALHQVFKLEPRSKEGPLLVLGRSMQPGSDQNHFCQPTDVAVEPSTGAVFVSDGYCNSRIVQFSPSGKFITQWGEESSGSSPKPGQFSVPHSLALVPHLNQLCVADRENGRIQCFKTDTKEFVREIKHASFGRNVFAISYIPGFLFAVNGKPYFGDQEPVQGFVMNFSSGEIIDVFKPVRKHFDMPHDIVASEDGTVYIGDAHTNTVWKFTLTESRLEVEHRSVKKAGIEVPEIKEAEAVVEPKVKNKPTSSELQKMQEKKKLIKDPGSGVPVVLITTLLVIPVVVLLAIAMFIRWKKSRAFGDHDRKLESSSGRVLGRLRGKGSSGLNLGNFFASRKGYSRKGFDRVSTEGSDQEKDEDDGSESEEEYSAPLPTPAPSS"
2,2,"PAM-1, stably expressed in AtT-20 cells (natural protein) FKETTRSFSNECLGTIGPVTPLDASDFALDIRMPGVTPKESDTYFCMSMRLPVDEEAFVIDFKPRASMDTVHHMLLFGCNMPSSTGSYWFCDEGTCTDKANILYAWARNAPPTRLPKGVGFRVGGETGSKYFVLQVHYGDISAFRDNHKDCSGVSVHLTRVPQPLIAGMYLMMSVDTVIPPGEKVVNADISCQYKMYPMHVFAYRVHTHHLGKVVSGYRVRNGQWTLIGRQNPQLPQAFYPVEHPVDVTFGDILAARCVFTGEGRTEATHIGGTSSDEMCNLYIMYYMEAKYALSFMTCTKNVAPDMFRTIPAEANIPIPVKPDMVMMHGHHKEAENKEKSALMQQPKQGEEEVLEQGDFYSLLSKLLGEREDVHVHKYNPTEKTESGSDLVAEIANVVQKKDLGRSDAREGAEHEEWGNAILVRDRIHRFHQLESTLRPAESRAFSFQQPGEGPWEPEPSGDFHVEEELDWPGVYLLPGQVSGVALDSKNNLVIFHRGDHVWDGNSFDSKFVYQQRGLGPIEEDTILVIDPNNAEILQSSGKNLFYLPHGLSIDTDGNYWVTDVALHQVFKLDPHSKEGPLLILGRSMQPGSDQNHFCQPTDVAVEPSTGAVFVSDGYCNSRIVQFSPSGKFVTQWGEESSGSSPRPGQFSVPHSLALVPHLDQLCVADRENGRIQCFKTDTKEFVREIKHASFGRNVFAISYIPGFLFAVNGKPYFGDQEPVQGFVMNFSSGEIIDVFKPVRKHFDMPHDIVASEDGTVYIGDAHTNTVWKFTLTEKMEHRSVKKAGIEVQEIKEAEAVVEPKVENKPTSSELQKMQEKQKLSTEPGSGVSVVLITTLLVIPVLVLLAIVMFIRWKKSRAFGDHDRKLESSSGRVLGRFRGKGSGGLNLGNFFASRKGYSRKGFDRVSTEGSDQEKDEDDGTESEEEYSAPLPKPAPSS"
